Data: patent US20210061914A1 (published 2021)
Changes are numbered by the printed parent chain.

B1: scFv R3G8-P5G08 (scFv, V domains shown)
VH: QVQLVQSGAEVKKPGASVKVSCKASGYTFTSNYMHWVRQAPGQGLEWMGWMNPNSGNTGYAQKFQGRVTMTRDTSTSTVYMELSSLRSEDTAVYYCARGLYGDYFLYYGMDVWGQGTTVTVSS
VL: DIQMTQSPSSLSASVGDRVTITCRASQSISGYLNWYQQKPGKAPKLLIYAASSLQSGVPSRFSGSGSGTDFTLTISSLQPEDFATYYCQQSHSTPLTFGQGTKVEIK
notes: scFv
B2: scFv G8-P1H08 (scFv, V domains shown)
VH: QVQLVQSGAEVKKPGASVKVSCKASGYTFGNYFMHWVRQAPGQGLEWMGMVNPSGGSETFAQKFQGRVTMTRDTSTSTVYMELSSLRSEDTAVYYCAASTWIQPFDYWGQGTLVTVSS
VL: DIQMTQSPSSLSASVGDRVTITCRASQGINSYLAWYQQKPGKAPKLLIYDASNLETGVPSRFSGSGSGTDFTLTISSLQPEDFATYYCQQHNSYPPTFGQGTKLEIK
notes: scFv
B3: scFv G8-P1C01 (scFv, V domains shown)
VH: QVQLVQSGAEVKKPGASVKVSCKASGGTFSSHAISWVRQAPGQGLEWMGVIIPSGGTSYTQKFQGRVTMTRDTSTSTVYMELSSLRSEDTAVYYCARGDYYDSSGYYFPVYFDYWGQGTLVTVSS
VL: B2 VL with G28N, N30Y, S31T, A34N, H91A, S93G, Y94F, P96L, Q100G, L104V
notes: scFv
B4: scFv G8-P1A04 (scFv, V domains shown)
VH: QVQLVQSGAEVKKPGASVKVSCKASGYPFIGQYLHWVRQAPGQGLEWMGIINPSGDSATYAQKFQGRVTMTRDTSTSTVYMELSSLRSEDTAVYYCARDLSYYYGMDVWGQGTTVTVSS
VL: DIQMTQSPSSLSASVGDRVTITCWASQGISSYLAWYQQKPGKAPKLLIYAASSLQSGVPSRFSGSGSGTDFTLTISSLQPEDFATYYCQQSYNTPWTFGPGTKVDIK
notes: scFv
B5: scFv G8-P2E06 (scFv, V domains shown)
VH: QVQLVQSGAEVKKPGASVKVSCKASGYTLTTYYMHWVRQAPGQGLEWMGWINPNSGGTNYAQKFQGRVTMTRDTSTSTVYMELSSLRSEDTAVYYCARAVYYDFWSGPFDYWGQGTLVTVSS
VL: B2 VL with N30S, S31N, Y32S, D50A, N53S, E55Q, T56S, H91A, Y94F, P96W
notes: scFv
B6: scFv G8-P1C11 (scFv, V domains shown)
VH: QVQLVQSGAEVKKPGASVKVSCKASGGTLSSYPINWVRQAPGQGLEWMGWISTYSGHADYAQKLQGRVTMTRDTSTSTVYMELSSLRSEDTAVYYCARSYDYGDYLNFDYWGQGTLVTVSS
VL: B4 VL with W24Q, G28D, S31N, A34N, N93S, T94I, W96P, P100G
notes: scFv
B7: scFv R3G8-P5F02 (scFv, V domains shown)
VH: QVQLVQSGAEVKKPGASVKVSCKASGYTFTGYYIHWVRQAPGQGLEWMGVINPSGGSTTYAQKLQGRVTMTRDTSTSTVYMELSSLRSEDTAVYYCARDRDSSWTYYYYGMDVWGQGTTVTVSS
VL: EIVMTQSPATLSVSPGERATLSCRASQSVGNSLAWYQQKPGQAPRLLIYGASTRATGIPARFSGSGSGTEFTLTISSLQSEDFAVYYCQQYGSSPYTFGQGTKVEIK
notes: scFv
B8: scFv G8-P2B05 (scFv, V domains shown)
VH: EVQLLESGGGLVQPGGSLRLSCAASGFDFSIYSMNWVRQAPGKGLEWVSAISGSGGSTYYADSVKGRFTISRDNSKNTLYLQMNSLRAEDTAVYYCASNGNYYGSGSYYNYWGQGTLVTVSS
VL: DIQMTQSPSSLSASVGDRVTITCRASQSISRWLAWYQQKPGKAPKLLIYAASSLQSGVPSRFSGSGSGTDFTLTISSLQPEDFATYYCQQYSTYPITIGQGTKVEIK
notes: scFv
B9: scFv G8-P1A03 (scFv, V domains shown)
VH: QVQLVQSGAEVKKPGASVKVSCKASGGTFSRSAITWVRQAPGQGLEWMGWINPNSGATNYAQKFQGRVTMTRDTSTSTVYMELSSLRSEDTAVYYCARDDYGDYVAYFQHWGQGTLVTVSS
VL: DIQMTQSPSSLSASVGDRVTITCRASQSITSYLNWYQQKPGKAPKLLIYDASNLETGVPSRFSGSGSGTDFTLTISSLQPEDFATYYCQQNYNSVTFGQGTKLEIK
notes: scFv
B10: scFv R3G8-P4F05 (scFv, V domains shown)
VH: B1 VH with T30S, S31N, N32M, M34L, M51I, S55T, N57D, G59N, K63T, T118K
VL: B4 VL with W24R, S31N, S53T, N93S, W96L, P100G, D105E
notes: scFv
B11: scFv G8-P1B03 (scFv, V domains shown)
VH: EVQLLESGGGLVQPGGSLRLSCAASGFTFSDYYMSWVRQAPGKGLEWVSGINWNGGSTGYADSVKGRFTISRDNSKNTLYLQMNSLRAEDTAVYYCARVEQGYDIYYYYYMDVWGKGTTVTVSS
VL: B4 VL with W24R, G28S, A34N, A50K, Q55E, N93S, T94A, W96Y
notes: scFv
B12: scFv G8-P1D02 (scFv, V domains shown)
VH: EVQLLESGGGLVQPGGSLRLSCAASGFTFSSYWMSWVRQAPGKGLEWVSSISGRGDNTYYADSVKGRFTISRDNSKNTLYLQMNSLRAEDTAVYYCARASGSGYYYYYGMDVWGQGTTVTVSS
VL: B4 VL with W24Q, G28D, S31N, A34N, N93S, T94A, W96Y, P100G, D105E
notes: scFv
B13: scFv R3G8-P5C03 (scFv, V domains shown)
VH: QVQLVQSGAEVKKPGASVKVSCKASGYTFTSYYMHWVRQAPGQGLEWMGWMNPNSGNTGYAQKFQGRVTMTRDTSTSTVYMELSSLRSEDTAVYYCARGLLGFGEFLTYGMDVWGQGTLVTVSS
VL: B4 VL with W24R, S31N, Y32W, S53T, S91T, N93S, P100Q, V104L, D105E
notes: scFv
B14: scFv G8-P1A06 (scFv, V domains shown)
VH: QVQLVQSGAEVKKPGASVKVSCKASGYTFTNYYMHWVRQAPGQGLEWMGWMNPIGGGTGYAQKFQGRVTMTRDTSTSTVYMELSSLRSEDTAVYYCARVYDFWSVLSGFDIWGQGTLVTVSS
VL: DIQMTQSPSSLSASVGDRVTITCRASQAISNSLAWYQQKPGKAPKLLIYAASTLQSGVPSRFSGSGSGTDFTLTISSLQPEDFATYYCGQSYSTPPTFGQGTKLEIK
notes: scFv
B15: scFv R3G8-P2E04 (scFv, V domains shown)
VH: QVQLVQSGAEVKKPGSSVKVSCKASGGTFSSYGVSWVRQAPGQGLEWMGWISPYSGNTDYAQKFQGRVTITADESTSTAYMELSSLRSEDTAVYYCARGLYYMDVWGKGTTVTVSS
VL: B2 VL with G28S, N30S, Y32W, H91S, N92Y, Y94T, P96L, Q100G
notes: scFv
B16: scFv R3G8-P2C10 (scFv, V domains shown)
VH: QVQLVQSGAEVKKPGASVKVSCKASGYTFTSYYMHWVRQAPGQGLEWMGWINPYSGGTNYAQKFQGRVTMTRDTSTSTVYMELSSLRSEDTAVYYCAKGGIYYGSGSYPSWGQGTLVTVSS
VL: B14 VL with A28D, I29V, N31T, S32W, T53S, G89Q, Y92H, P96Q, L104V
notes: scFv
B17: scFv G8-P2C11 (scFv, V domains shown)
VH: QVQLVQSGAEVKKPGASVKVSCKASGYTFTSYAMNWVRQAPGQGLEWMGWINPNSGGTNYAQKFQGRVTMTRDTSTSTVYMELSSLRSEDTAVYYCAKDPFWSGHYYYYGMDVWGQGTTVTVSS
VL: not shown
notes: scFv
B18: scFv G5R4-P3G05 (scFv, V domains shown)
VH: QVQLVQSGAEVKKPGASVKVSCKASGYTFTNYYMHWVRQAPGQGLEWMGIINPSGGSTSYAQKFQGRVTMTRDTSTSTVYMELSSLRSEDTAVYYCARSWFGGFNYHYYGMDVWGQGTTVTVSS
VL: DIQMTQSPSSLSASVGDRVTITCQASEDISNHLNWYQQKPGKAPKLLIYDALSLQSGVPSRFSGSGSGTDFTLTISSLQPEDFATYYCQQANSFPFTFGPGTKVDIK
notes: scFv
B19: scFv G5R4-P1D06 (scFv, V domains shown)
VH: QVQLVQSGAEVKKPGASVKVSCKASGYTFTSYDINWVRQAPGQGLEWMGWINPNSGDTKYSQKFQGRVTMTRDTSTSTVYMELSSLRSEDTAVYYCARDGTRYYGMDVWGQGTTVTVSS
VL: not shown
notes: scFv
B20: scFv G5R4-P2B10 (scFv, V domains shown)
VH: QVQLVQSGAEVKKPGASVKVSCKASGGTFSSYAISWVRQAPGQGLEWMGWMNPDSGSTGYAQRFQGRVTMTRDTSTSTVYMELSSLRSEDTAVYYCARGHSSGWYYYYGMDVWGQGTTVTVSS
VL: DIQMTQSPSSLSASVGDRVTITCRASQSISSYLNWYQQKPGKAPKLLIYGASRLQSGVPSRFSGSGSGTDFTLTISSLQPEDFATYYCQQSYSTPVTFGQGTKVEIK
notes: scFv
B21: scFv G5R4-P1H11 (scFv, V domains shown)
VH: EVQLLESGGGLVKPGGSLRLSCAASGFTFSDYYMSWVRQAPGKGLEWVSYISSSSSYTNYADSVKGRFTISRDDSKNTLYLQMNSLKTEDTAVYYCARDVVANFDYWGQGTLVTVSS
VL: B7 VL with G30S, N31S, S32N, G50A, T53A, T56S, S94W, Y96R
notes: scFv
B22: scFv G5R4-P2H8 (scFv, V domains shown)
VH: EVQLLESGGGLVQPGGSLRLSCAASGFTFTSYSMHWVRQAPGKGLEWVSSITSFTNTMYYADSVKGRFTISRDNSKNTLYLQMNSLRAEDTAVYYCAKDLGSYGGYYWGQGTLVTVSS
VL: not shown
notes: scFv
B23: scFv G5-P4E04 (scFv, V domains shown)
VH: QVQLVQSGAEVKKPGASVKVSCKASGGTFSSYGISWVRQAPGQGLEWMGWINPNSGVTKYAQKFQGRVTMTRDTSTSTVYMELSSLRSEDTAVYYCARGDYYFDYWGQGTLVTVSS
VL: B14 VL with A28S, N31R, S32F, A34N, A50G, T53R, L54P, G89Q, P96L, L104V
notes: scFv
B24: scFv R3G10-P5C08 (scFv, V domains shown)
VH: QVQLVQSGAEVKKPGASVKVSCKASGYNFTGYYMHWVRQAPGQGLEWMGIIAPSDGSTNYAQKFQGRVTMTRDTSTSTVYMELSSLRSEDTAVYYCARETGDDAFDIWGQGTMVTVSS
VL: not shown
notes: scFv

Each binder was assayed against HLA-A*02:01_… (HLA-PEPTIDE target G8), soluble (human, enzymatically biotinylated (BirA) for screening and BLI) (assay: scFv PPE ELISA).

| fold selective binding, target pHLA vs minipool of negative control pHLAs | Binder |
| --- | --- |
| ≥ 3 fold | B1 |
| ≥ 3 fold | B2 |
| ≥ 3 fold | B3 |
| ≥ 3 fold | B4 |
| ≥ 3 fold | B5 |
| ≥ 3 fold | B6 |
| ≥ 3 fold | B7 |
| ≥ 3 fold | B8 |
| ≥ 3 fold | B9 |
| ≥ 3 fold | B10 |
| ≥ 3 fold | B11 |
| ≥ 3 fold | B12 |
| ≥ 3 fold | B13 |
| ≥ 3 fold | B14 |
| ≥ 3 fold | B15 |
| ≥ 3 fold | B16 |
| ≥ 3 fold | B17 |

Each binder was assayed against HLA-B*35:01_… (HLA-PEPTIDE target G5), soluble (human, enzymatically biotinylated (BirA)) (assay: scFv PPE ELISA).

| fold selective binding, target pHLA vs minipool of negative control pHLAs | Binder |
| --- | --- |
| ≥ 3 fold | B18 |
| ≥ 3 fold | B19 |
| ≥ 3 fold | B20 |
| ≥ 3 fold | B21 |
| ≥ 3 fold | B22 |
| ≥ 3 fold | B23 |

What follows are binders tested against HLA-A*01:01_… (HLA-PEPTIDE target G10), soluble (human, enzymatically biotinylated (BirA)) (assay: scFv PPE ELISA).

| fold selective binding, target pHLA vs minipool of negative control pHLAs | Binder |
| --- | --- |
| ≥ 3 fold | B24 |
